Test results from the supplement of paper PMC10567573.

B1: STK38L (parent)
chain: NWKETLVFPPEVPISEKAKDLILR
B2: CD69 (parent)
chain: FVAENSSLHPESGQENDATSPHFS

Variants of: B1
Assay: protein stability index of a GFP-peptide fusion (GPS, HEK-293T) (PSI 1-6); higher = more stable
Settings: c terminus: a fixed tail appended
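Also: lentivirally expressed fusions sorted by FACS into six bins by GFP to DsRed ratio, PSI derived from sequencing read proportions per bin multiplied by bin number.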

Protein stability index, by site and new letter:
R24: F 2.13; N 3.96; Q 2.83; Y 1.63; K 3.6; T 3.59; S 3.31; M 2.64; W 2.11; L 2.03; C 2.16; P 3.43; H 3.16; I 1.88; V 1.91; D 4.32; E 3.57; A 3.09; G 3.9
L21: M 3.42; Y 2.71; V 3.53; N 3.56; T 4.44; Q 3.41; S 3.72; R 3.62; P 3.69; I 3.27; W 2.58
I22: V 3.06; P 4.36; W 3.42; K 3.66; L 3.21; H 3.68; A 4.17; G 3.23; M 4.15; C 3.07; Y 3.51; Q 3.88; E 4.54; T 4.22; N 3.62; D 4.43; R 4.04; F 2.79; S 3.89
L23: H 3.78; A 3.75; I 3.24; E 4.15; S 3.94; Y 2.99; P 3.9; Q 4.22; R 4.19; K 4.24; F 2.9; D 4.92; C 3.36; V 3.27; M 2.6; N 4.09; W 2.12; T 3.77; G 4.47

Variants of: B2
Assay: as above
Settings: c terminus: a fixed tail appended

Protein stability index of substitutions, site by site:
V2: Y 4.84; S 5.39; I 4.44; E 5.5; D 5.18; H 4; C 4.82; N 5.25; T 5.17; W 4.86; P 5.46; L 5; G 5.26; K 5.4; F 5.13; R 5.36; A 4.94; M 4.87; Q 4.86
N5: M 2.45; C 2.5; G 3.21; T 2.77; W 1.99; L 2.95; V 2.96; Y 2.87; P 2.56; K 2.69; D 4.57; F 1.94; Q 3.22; H 2.61; E 3.7; R 2.16; A 3.1; S 2.57; I 2.16
E4: M 2.1; T 2.37; Q 3.31; Y 2.39; H 2.5; L 2.9; K 2.89; P 3.51; F 2.18; N 2.87; V 3.2; C 1.93; S 2.44; R 2.17; W 3.23; D 2.61; G 3.99; I 2.42; A 2.85
S6: D 4.33; C 2.46; A 2.96; E 4.05
F1: K 5.78; T 5.58; C 5.02; D 5.78; H 4.98; G 5.41; W 5.2; N 5.39; P 5.51; V 4.96; S 5.4; Y 3.64; A 4.81; Q 5.65; E 5.62; R 5.12; I 5.04; M 5.49; L 5.13
A3: Q 3.27; W 2.82; Y 3.02; F 3.02; V 3.43; M 3.11; I 2.86; S 2.56; K 2.95; P 2.41; R 2.88; C 2.73; H 3.03; N 3.21; L 2.95; T 3.12; D 2.95; G 2.98; E 3.57
